Source: patent publication US20100081575A1 (published 2010)

B1: 2G12 domain exchanged Fab fragment displayed on phage, expressed from the 2G12 pCAL G13 vector (SEQ ID NO: 11) (Fab, not shown: small tags and cut ends; large carriers)
heavy 1: EVQLVESGGGLVKAGGSLILSCGVSNFRISAHTMNWVRRVPGGGLEWVASISTSSTYRDYADAVKGRFTVSRDDLEDFVYLQMHKMRVEDTAIYYCARKGSDRLSDNDPFDAWGPGTVVTVSPASTKGPSVFPLAPSSKSTSGGTAALGCLVKDYFPEPVTVSWNSGALTSGVHTFPAVLQSSGLYSLSSVVTVPSSSLGTQTYICNVNHKPSNTKVDKKVEPKSCLRYPYDVPDYA
heavy 2: B1 heavy 1
light: AGVVMTQSPSTLSASVGDTITITCRASQSIETWLAWYQQKPGKAPKLLIYKASTLKTGVPSRFSGSGSGTEFTLTISGLQFDDFATYHCQHYAGYSATFGQGTRVEIKRTVAAPSVFIFPPSDEQLKSGTASVVCLLNNFYPREAKVQWKVDNALQSGNSQESVTEQDSKDSTYSLSSTLTLSKADYEKHKVYACEVTHQGLSSPVTKSFNRGEC
notes: also called 2G12 Fab; 2G12 alone
B2: 2G12 domain exchanged Fab fragment displayed on phage, expressed from the 2G12 pCAL A1 vector (SEQ ID NO: 217) (Fab)
heavy 1: EVQLVESGGGLVKAGGSLILSCGVSNFRISAHTMNWVRRVPGGGLEWVASISTSSTYRDYADAVKGRFTVSRDDLEDFVYLQMHKMRVEDTAIYYCARKGSDRLSDNDPFDAWGPGTVVTVSPASTKGPSVFPLAPSSKSTSGGTAALGCLVKDYFPEPVTVSWNSGALTSGVHTFPAVLQSSGLYSLSSVVTVPSSSLGTQTYICNVNHKPSNTKVDKKVEPKSCLR
heavy 2: B2 heavy 1
light: B1 light

Molecular target: T1, ovalbumin (UniProt P01012 2-386)
T1 sequence (looked up): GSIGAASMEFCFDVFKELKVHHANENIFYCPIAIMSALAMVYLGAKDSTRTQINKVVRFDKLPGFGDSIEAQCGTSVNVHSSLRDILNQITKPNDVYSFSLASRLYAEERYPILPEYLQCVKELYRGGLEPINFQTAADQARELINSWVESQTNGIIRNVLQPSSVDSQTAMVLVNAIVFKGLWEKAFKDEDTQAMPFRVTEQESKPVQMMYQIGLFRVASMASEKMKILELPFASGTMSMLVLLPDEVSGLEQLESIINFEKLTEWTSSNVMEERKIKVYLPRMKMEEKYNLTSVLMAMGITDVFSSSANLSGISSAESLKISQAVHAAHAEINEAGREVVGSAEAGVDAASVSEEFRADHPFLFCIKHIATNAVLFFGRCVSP
Test: phage ELISA, anti-HA or anti-M13 detection

| Binder | binding result |
| --- | --- |
| B1 | no binding |
| B2 | no binding |
